Experimental findings from paper PMC4755760, “The acidic domain of the endothelial membrane protein GPIHBP1 stabilizes lipoprotein lipase activity by preventing unfolding of its catalytic domain” (eLife, 2016) are described below.

The target in test [1] is bovine LPL homodimer (LPL2) (bovine) (UniProt P11151).
Test [2] has the same target. In words: SPR; Biacore T200, CM4 chip; bovine LPL2 captured on immobilised mAb 5D2, GPIHBP1 as analyte (12.5-200 nM), single-cycle kinetic titration; 20°C; 10 mM HEPES (pH 7.4), 150 mM NaCl, 4 mM CaCl2, 0.05% P20, 0.2 mg/ml BSA; 1:1 model.
Test [3] has as its target Alexa-647–labeled GPIHBP1^34–131/R38G (human) (UniProt Q8IV16). Description: MST; Monolith NT.115; 5 nM Alexa-647-labeled GPIHBP1, LPL2 titrated 10 pM to 350 nM; 10 mM HEPES (pH 7.4), 150 mM NaCl, 4 mM CaCl2, 0.05% P20, 1.0 mg/ml BSA; 22°C; 1:1 model.
The target in test [4] is T1, CTD^313–448 of human LPL (human, UniProt P06858 340-475).
T1 construct: lipoprotein lipase (LPL), human, C-terminal domain, residues 313-448; numbers count on: the mature protein; the printed surface densities (85 RU ~ 5 fmols/mm^2) fit about 17 kDa, that is a CTD without the tag (surmise); also called LPL CTD; C-terminal domain of LPL; source: Drosophila S2 cells, secreted as RS-DIII-ent-CTD, purified (anti-uPAR mAb R24 column)
T1 sequence (looked up): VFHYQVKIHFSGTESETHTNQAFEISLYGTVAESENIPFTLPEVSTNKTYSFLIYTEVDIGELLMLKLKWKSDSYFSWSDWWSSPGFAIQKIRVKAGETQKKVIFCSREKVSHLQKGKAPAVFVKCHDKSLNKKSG
Description: SPR; Biacore T200, CM4 chip; LPL CTD captured on immobilised mAb 5D2 (~100–200 RU), GPIHBP1 as analyte 8 nM to 4 µM; 20°C; 10 mM HEPES, 150 mM NaCl, 3 mM EDTA (pH 7.4), 0.05% P20; single- and multi-cycle kinetics, global fit to a 1:1 model. To be noted: both partners purified. (In general: Surface plasmon resonance follows binding to a sensor surface in real time, without labels.)

Test [5] has as its target T2, bovine LPL homodimer (LPL2) (bovine, UniProt P11151 29-478).
T2 construct: lipoprotein lipase (LPL), bovine, from milk; bovine LPL has two residues more than human LPL (Lys296 human = Lys298 bovine); numbers count on: the mature protein; Fractions with dimeric LPL were used; head-to-tail homodimer; also called lipoprotein lipase; full-length LPL; source: purified from fresh bovine milk (heparin-Sepharose, hydroxyapatite, Superdex HR200 SEC)
T2 sequence (looked up): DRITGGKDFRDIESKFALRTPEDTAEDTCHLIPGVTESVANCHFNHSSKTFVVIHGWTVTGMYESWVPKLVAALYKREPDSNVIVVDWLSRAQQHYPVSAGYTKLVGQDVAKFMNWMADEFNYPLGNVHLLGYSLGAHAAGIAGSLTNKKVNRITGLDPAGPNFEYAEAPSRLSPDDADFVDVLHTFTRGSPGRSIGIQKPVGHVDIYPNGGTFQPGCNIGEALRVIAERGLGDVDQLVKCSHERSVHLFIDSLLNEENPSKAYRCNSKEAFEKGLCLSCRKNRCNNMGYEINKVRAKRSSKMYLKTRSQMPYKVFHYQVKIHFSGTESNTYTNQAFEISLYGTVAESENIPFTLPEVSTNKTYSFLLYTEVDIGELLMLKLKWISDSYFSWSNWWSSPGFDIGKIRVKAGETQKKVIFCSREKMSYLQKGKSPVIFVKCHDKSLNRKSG
In words: SPR; Biacore T200, CM4 chip; bovine LPL2 captured on immobilised mAb 5D2, GPIHBP1 as analyte (12.5-200 nM), single-cycle kinetic titration; 20°C; 10 mM HEPES (pH 7.4), 150 mM NaCl, 4 mM CaCl2, 0.05% P20, 0.2 mg/ml BSA; 1:1 model. Particulars: both partners purified.

The target of test [6] is T2, bovine LPL homodimer (LPL2). In words: cell-based or functional assay.
Test [7] shares this target. In words: MST; Monolith NT.115; 5 nM Alexa-647-labeled GPIHBP1, LPL2 titrated 10 pM to 350 nM; 10 mM HEPES (pH 7.4), 150 mM NaCl, 4 mM CaCl2, 0.05% P20, 1.0 mg/ml BSA; 22°C; 1:1 model. Particulars: both partners purified.

In the case of GPIHBP1^1–33 (peptide), in test [1], the Loss of esterase activity (%) of LPL after 45 min at 25°C, peptide in 5-fold molar excess; relative to LPL without ligand (100%) was determined as 9.8%; the Loss of triolein hydrolase activity (%) of LPL after 45 min at 25°C, peptide in 5-fold molar excess; relative to LPL without ligand (100%) was found to be 4.2%; the Unfolding of NTD in LPL (%) after 45 min at 25°C, by pulse-labeling HDX-MS, equimolar ligand; relative to LPL without ligand (100%) is 43%.
Regarding “GPIHBP1^34–131/R38G (from UniProt Q8IV16 54-151) (domain or fragment)”, in test [2], the equilibrium dissociation constant (Kd) (commonly a measure of binding affinity in units of concentration) was 91 nM; the koff – broadly, the first-order rate constant of dissociation – was 0.019 s⁻¹; the association rate constant (kon) (in general, the rate constant with which the complex forms) stood at 190000 M⁻¹ s⁻¹. In test [1], this molecule had a Loss of esterase activity (%) of LPL after 45 min at 25°C; relative to LPL without ligand (100%) of 34.7%; a Loss of triolein hydrolase activity (%) of LPL after 45 min at 25°C; relative to LPL without ligand (100%) of 51.5%; an Unfolding of NTD in LPL (%) after 45 min at 25°C, by pulse-labeling HDX-MS, equimolar ligand; relative to LPL without ligand (100%) of 79.2%.
In test [3], “bovine LPL homodimer (LPL2) (from UniProt P11151 29-478) (enzyme)” had a dissociation constant (Kd) of 147 nM.

B1: GPIHBP1^34–131/R38G (domain or fragment, human, UniProt Q8IV16 54-151, looked up)
chain: LPGGGSRVLLRCYTCKSLPRDERCNLTQNCSHGQTCTTLIAHGNTESGLLTTHSTWCTDSCQPITKTVEGTQVTMTCCQSSLCNVPPWQSSRVQDPTG
notes: numbers count on: the mature protein; Monomeric by SEC; also called truncated GPIHBP1 lacking the acidic domain; isolated LU domain; source: Drosophila S2 cells; not shown: uPAR domain III (DIII), N-terminal, cleaved
In test [4], B1 showed a Kd of 1410 ± 760 nM, a koff of 0.1 ± 0.01 s⁻¹ and a kon of 100000 M⁻¹ s⁻¹.

B2: GPIHBP1^1–131/R38G (domain or fragment, human, UniProt Q8IV16 21-151, looked up)
chain: QTQQEEEEEDEDHGPDDYDEEDEDEVEEEETNRLPGGGSRVLLRCYTCKSLPRDERCNLTQNCSHGQTCTTLIAHGNTESGLLTTHSTWCTDSCQPITKTVEGTQVTMTCCQSSLCNVPPWQSSRVQDPTG
notes: numbers count on: the mature protein; Monomeric by SEC; Carries a single N-linked glycan; also called soluble human GPIHBP1; not shown: uPAR domain III (DIII), N-terminal, cleaved
In test [5], B2 gave a dissociation constant Kd of 25 ± 7 nM, a koff of 0.023 ± 0.006 s⁻¹ and an on-rate (kon) of 990000 M⁻¹ s⁻¹. For the same molecule, in test [6], the “Loss of esterase activity (%) of LPL after 45 min at 25°C; relative to LPL without ligand (100%)” value was 11.4%; the “Loss of triolein hydrolase activity (%) of LPL after 45 min at 25°C; relative to LPL without ligand (100%)” value was 28.7%; the “Unfolding of NTD in LPL (%) after 45 min at 25°C, by pulse-labeling HDX-MS, equimolar ligand; relative to LPL without ligand (100%)” value is 32.6%. Moreover, in test [4], the Kd worked out at 120 ± 40 nM, the koff was determined as 0.12 ± 0.04 s⁻¹ and the kon was 1.04e+06 M⁻¹ s⁻¹.

B3: Alexa-647–labeled GPIHBP1^1–131/R38G (domain or fragment, human, UniProt Q8IV16 21-151, looked up)
chain: QTQQEEEEEDEDHGPDDYDEEDEDEVEEEETNRLPGGGSRVLLRCYTCKSLPRDERCNLTQNCSHGQTCTTLIAHGNTESGLLTTHSTWCTDSCQPITKTVEGTQVTMTCCQSSLCNVPPWQSSRVQDPTG
modifications: Alexa Flour-647 (NHS ester), average 1.3 flurophore/protein; conditions favor modification of the N-terminal α-amino group
notes: numbers count on: the mature protein; m1 with a fluorophore; source: Drosophila S2 cells, purified, labeled with Alexa Flour-647 NHS ester, desalted (PD-10); not shown: uPAR domain III (DIII), N-terminal, cleaved
Turning to B3, the Kd in test [7] turned out to be 5.7 nM.

B4: GPIHBP1^1–131/R38G N-gly (domain or fragment, human, UniProt Q8IV16 21-151, looked up)
chain: QTQQEEEEEDEDHGPDDYDEEDEDEVEEEETNRLPGGGSRVLLRCYTCKSLPRDERCNLTQNCSHGQTCTTLIAHGNTESGLLTTHSTWCTDSCQPITKTVEGTQVTMTCCQSSLCNVPPWQSSRVQDPTG
modifications: the single N-linked glycan removed with N-glycanase
notes: numbers count on: the mature protein; As m1 after removal of the N-glycan; source: Drosophila S2 cells, purified, then incubated overnight at 37°C with N-glycanase under native conditions; not shown: uPAR domain III (DIII), N-terminal, cleaved
Regarding B4, in test [4], binding was characterised by a dissociation constant (Kd) of 150 nM, the dissociation rate constant (koff) was found to be 0.16 s⁻¹ and the kon is 1.06e+06 M⁻¹ s⁻¹.

B5: GPIHBP1^1–131 (domain or fragment, human, UniProt Q8IV16 21-151, looked up)
chain: QTQQEEEEEDEDHGPDDYDEEDEDEVEEEETNRLPGGRSRVLLRCYTCKSLPRDERCNLTQNCSHGQTCTTLIAHGNTESGLLTTHSTWCTDSCQPITKTVEGTQVTMTCCQSSLCNVPPWQSSRVQDPTG
notes: numbers count on: the mature protein; not shown: uPAR domain III (DIII), N-terminal, cleaved
For the molecule B5, in test [5], binding was put at a Kd of 38 ± 29 nM, the koff came out at 0.02 ± 0.007 s⁻¹ and the kon was 650000 M⁻¹ s⁻¹. In test [4], the Kd was found to be 290 ± 130 nM, the koff was determined as 0.22 ± 0.07 s⁻¹ and the association rate constant (kon) came to 1.12e+06 M⁻¹ s⁻¹.
